This is an account of results in US7217693B2, “Human G protein-coupled receptor expressed in the dorsal root ganglia” (National Research Council of Canada, priority 1997, dated 2007).

T1 sequence (Q96LB2 whole entry I5V/E310Q/I312T): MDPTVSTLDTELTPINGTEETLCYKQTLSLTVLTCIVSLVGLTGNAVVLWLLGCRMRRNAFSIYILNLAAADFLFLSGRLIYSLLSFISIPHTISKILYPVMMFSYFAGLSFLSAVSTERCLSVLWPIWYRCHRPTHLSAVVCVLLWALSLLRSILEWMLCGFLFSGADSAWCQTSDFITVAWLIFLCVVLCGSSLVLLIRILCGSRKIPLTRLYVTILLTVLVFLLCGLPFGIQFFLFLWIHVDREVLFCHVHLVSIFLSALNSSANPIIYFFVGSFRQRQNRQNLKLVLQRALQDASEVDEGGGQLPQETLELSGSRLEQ

The test concerns the target T1, human clone 24 (Homo sapiens, UniProt Q96LB2, E310Q/I312T/I5V).
T1 construct: expressed in transfected cells
Nature of the test: Calcium signaling (FURA-2) in stably transfected HEK293 cells 293/pcDNA3-HML-HA24. Format: cell-based. The note with it: stably transfected HEK293 cell line 293/pcDNA3-HML-HA24, FURA-2 AM, peptides added successively. Here is the method: The coding sequence of human clone 24 was transferred into a pcDNA3 vector and modified to add a haemaglutinin tag at the C-terminus of the receptor sequence. This clone, designated as pcDNA3-HML-HA24 was transfected into HEK293 cells using a modified CaCl2 method (Maniatis, Molecular Cloning: A Laboratory Manual, Cold Spring Harbor Laboratory Press (1989)). The cells were maintained in culture medium at 37° C., 5% CO2 and diluted 10 fold every 3 days.
The cells were inoculated in 90 mm tissue culture dishes (5×10^5 cells per flask) in Dulbecco's Modified Essential Medium (DMEM, Gibco BRL), supplemented with 10% fetal bovine serum (FBS), 100 U/ml penicillin, 100 μg/ml streptomycin and 0.25 μg/ml fungizone. One day after inoculation, cells were transiently transfected with 30 μg of plasmid DNA per dish. The cells were harvested 48 hours post transfection for analysis. The expression of the gene was first checked by immunoprecipitation and western blotting with an anti-haemaglutinin antibody. A protein of approximately 43 KD was detected in stably as well as transiently transfected HEK293 cells, but not in control cells.
Stably transfected HEK293 cells were obtained after approximately 21 days of selection in culture medium containing 800 μg/ml G418. Calcium signaling measurement was performed with one of these stably transfected cell line, 293/pcDNA3-HML-HA24. The cells were grown on a 24 mm round glass cover slides to 50–70% confluence. […] The calcium displacement was measured using a PTI (Photon Technology International) D104 photometer equipped with a PTI Delta RAM High speed multiwavelength illuminator, a PTI SC500 Shutter controller, a PTI LPS220 ARC lamp supply and the PTI FELIX software, v.1.2. […] The cells were exposed to 340 and 380 nm light and the 510 nm light emitted by the cells was recorded. […]
“angiotensin II (DRVYIHPF) [peptide added to DRR-transfected cells in calcium signaling assay]”: the “calcium displacement response upon stimulation” value is given as “a significant response”.

Consider “Angiotensin I (DRVYIHPFHL) [peptide added to DRR-transfected cells in calcium signaling assay]”, for which the “calcium displacement response upon stimulation” value was “no response”.

angiotensin III: the “calcium displacement response upon stimulation” value is given as “a significant response”.
